The test has as its target T1, Prostacyclin synthase (PTGIS), truncated, His-tagged, with Avi-tag, biotinylated (UniProt Q16647 1-500, biotin (in vivo biotinylation of the Avi-tag)).
T1 construct: Prostacyclin synthase (PTGIS; EC 5.3.99.4), truncated (by the membrane domain); Held on the streptavidin (SA) chip; also called biotinylated PTGIS; PTGIS immobilized on the optical chip; source: E. coli BL21(DE3), purified (Ni-NTA, SEC)
T1 sequence (looked up): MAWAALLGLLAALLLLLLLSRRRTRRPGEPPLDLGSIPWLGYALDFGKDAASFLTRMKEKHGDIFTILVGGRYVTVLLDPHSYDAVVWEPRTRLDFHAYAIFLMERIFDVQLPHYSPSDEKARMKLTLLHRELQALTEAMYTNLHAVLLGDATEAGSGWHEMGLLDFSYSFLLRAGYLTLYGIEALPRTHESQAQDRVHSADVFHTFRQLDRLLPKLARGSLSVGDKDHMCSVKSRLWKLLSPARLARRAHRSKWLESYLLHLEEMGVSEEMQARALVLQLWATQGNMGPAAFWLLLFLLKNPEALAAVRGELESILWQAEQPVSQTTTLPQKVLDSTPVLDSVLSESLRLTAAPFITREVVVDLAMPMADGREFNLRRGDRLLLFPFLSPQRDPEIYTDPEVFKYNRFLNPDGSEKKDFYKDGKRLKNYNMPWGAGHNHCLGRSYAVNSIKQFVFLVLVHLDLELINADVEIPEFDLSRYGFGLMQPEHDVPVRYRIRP
Description: SPR; biotinylated PTGIS on a streptavidin (SA) chip, purified protein injected as analyte; 25 °C, Biacore T-200. Particulars: both partners purified. Background: Surface plasmon resonance follows binding to a sensor surface in real time, without labels.

The source of these data is article PMC6628129 (Biology, 2019).

B1: Cytochrome P450 2J2 (CYP2J2), truncated and His-tagged (enzyme)
chain: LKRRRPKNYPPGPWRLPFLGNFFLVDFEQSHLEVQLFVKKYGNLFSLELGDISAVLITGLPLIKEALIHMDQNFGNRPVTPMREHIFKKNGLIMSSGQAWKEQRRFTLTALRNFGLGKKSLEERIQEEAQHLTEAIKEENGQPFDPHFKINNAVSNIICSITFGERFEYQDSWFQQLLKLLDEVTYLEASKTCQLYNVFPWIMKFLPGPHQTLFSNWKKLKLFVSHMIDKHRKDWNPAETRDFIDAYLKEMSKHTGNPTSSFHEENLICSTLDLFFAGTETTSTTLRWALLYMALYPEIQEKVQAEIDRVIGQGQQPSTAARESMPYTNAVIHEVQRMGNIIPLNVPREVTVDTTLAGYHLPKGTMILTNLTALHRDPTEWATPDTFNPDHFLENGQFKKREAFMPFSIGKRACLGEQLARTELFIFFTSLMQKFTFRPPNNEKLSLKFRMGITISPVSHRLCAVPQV
The Kd is the constant that tells how readily two partners part at equilibrium. Lower therefore signals a tighter complex. The molecule B1 came in with an equilibrium dissociation constant (Kd) of 200 nM.
